Data from paper PMC12738837, “Structure of Trypanosoma peroxisomal import complex unveils conformational heterogeneity” (Nature Communications, 2025).
“And” between values parts separate entries of the source, which are not always exact repeats. Equal entries are not always repeated.

B2: glycosomal malate dehydrogenase (MDH, residues 1–323) (enzyme, Trypanosoma cruzi, UniProt Q4DRD8 1-323, looked up)
chain: MVNVAVIGAAGGIGQSLSLLLLRELPFGSTLSLYDVVGAPGVAADLSHIDRAGITVKHAAGKLPPVPRDPALTELAEGVDVFVIVAGVPRKPGMTRDDLFNVNAGIVMDLVLTCASVSPNACFCIVTNPVNSTTPIAAQTLRKIGVYNKNKLLGVSLLDGLRATRFINNARHPLVVPYVPVVGGHSDVTIVPLYSQIPGPLPDESTLKEIRKRVQVAGTEVVKAKAGRGSATLSMAEAGARFTMHVVKALMGLDTPMVYAYVDTDGEHECPFLAMPVVLGKNGIERRLPIGPITTVEKEMLEEAVGVVKKNIAKGETFARSKL
notes: glycosomal malate dehydrogenase (MDH), Trypanosoma cruzi, residues 1-323, UniProt Q4DRD8; Tetramer (two dimers related by D2 symmetry) by cryo-EM; also called cargo; MDH tetramer; source: E. coli BL21 (DE3), purified (Ni-NTA, SEC)

Assays:
[1] = molecular target: T1, Pex5_(eTPR) (residues 314–666), truncated Pex5 containing an extended TPR domain with a single Wxxx(F/Y) motif (Trypanosoma cruzi, UniProt Q4DPQ9 316-668); assay: ITC; Pex5_(eTPR) with the PTS1 peptide (NH2-ARSKL-COOH); who was in the cell is not stated for the peptide; 25 °C; details: both partners purified
[2] = molecular target: T1, Pex5_(eTPR) (residues 314–666), …; assay: ITC; Pex5_(eTPR) (250 μM) injected into MDH (25 μM) in the cell; 100 mM Hepes, 150 mM NaCl, 2 mM β-mercaptoethanol, pH 7.5; 25 °C; details: both partners purified
[3] = molecular target: T2, Pex5_(eTPR)(R625A, D629A) (Trypanosoma cruzi, UniProt Q4DPQ9 316-668, R625A | D629A); assay: as above; details: both partners purified
T2 construct: source: E. coli BL21 (DE3), purified as wild type (Ni-NTA, SEC)
T2 sequence: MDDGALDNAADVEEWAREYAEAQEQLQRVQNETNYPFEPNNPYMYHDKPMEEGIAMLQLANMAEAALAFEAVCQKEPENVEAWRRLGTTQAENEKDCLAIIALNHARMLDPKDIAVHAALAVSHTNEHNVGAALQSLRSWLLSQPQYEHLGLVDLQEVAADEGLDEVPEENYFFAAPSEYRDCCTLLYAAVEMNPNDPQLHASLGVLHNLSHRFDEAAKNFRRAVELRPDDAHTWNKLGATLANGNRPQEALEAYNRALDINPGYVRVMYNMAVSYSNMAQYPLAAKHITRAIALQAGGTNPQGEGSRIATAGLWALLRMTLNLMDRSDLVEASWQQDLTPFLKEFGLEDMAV

[4] = molecular target: T3, Pex5_(eTPR)(P490R) (Trypanosoma cruzi, UniProt Q4DPQ9 316-668, P490R); assay: as above; details: both partners purified
T3 construct: source: E. coli BL21 (DE3), purified as wild type (Ni-NTA, SEC)
T3 sequence: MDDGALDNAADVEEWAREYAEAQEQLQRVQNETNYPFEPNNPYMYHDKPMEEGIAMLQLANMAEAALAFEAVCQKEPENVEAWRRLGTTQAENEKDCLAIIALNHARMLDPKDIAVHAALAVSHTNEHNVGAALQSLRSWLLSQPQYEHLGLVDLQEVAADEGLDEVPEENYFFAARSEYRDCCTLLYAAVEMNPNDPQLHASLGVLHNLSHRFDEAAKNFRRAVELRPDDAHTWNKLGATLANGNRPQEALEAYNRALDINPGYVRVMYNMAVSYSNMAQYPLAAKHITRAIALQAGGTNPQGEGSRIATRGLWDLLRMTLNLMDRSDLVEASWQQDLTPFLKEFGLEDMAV

[5] = molecular target: the molecule itself; assay: cryo-EM structure; ternary complex: purified MDH (tetramer), full-length Pex5 and Pex14NTD mixed at 1:4:12, overnight at 4 °C, separated on Superose6 10/300, vitrified at ~0.75 mg/mL; no cross-linking; MDH alone solved from the same dataset
[6] = molecular target: 6-FAM labeled PTS1 peptide; assay: fluorescence polarisation
[7] = molecular target: B2; assay: cryo-EM structure; ternary complex: purified MDH (tetramer), full-length Pex5 and Pex14NTD mixed at 1:4:12, overnight at 4 °C, separated on Superose6 10/300, vitrified at ~0.75 mg/mL; no cross-linking; MDH alone solved from the same dataset; details: both partners purified

B1: PTS1 peptide derived from MDH (NH2-ARSKL-COOH) (peptide)
peptide: H-ARSKL-OH
notes: short peptide encompassing PTS1 of T. cruzi glycosomal MDH, residues 319-ARSKL-323; also called MDH-derived PTS1 peptide
Kd [1]: 135 ± 19 nM

B2
Kd [2]: 435 ± 80 nM | Kd [3]: 453 ± 64 nM | Kd [4]: 1390 ± 226 nM | stoichiometry N [5]: 4

B3: full length Pex5 (residues 1–666) (receptor, Trypanosoma cruzi, UniProt Q4DPQ9 1-668, looked up)
chain: MDCSTGAAIGQQFAKDAFHMHGGVGVGPTGNPEHDVLMNEMMMVQTPTGPAGEWTHQFAAYQGKQQQQHPQELAMRHQQNDALMLRQQQEMEEAFCTLCAAHPHSHAHSHAHSHQPQGLVGPAMMGPQIMPPMMFGPGSGGFMMGTPPMMPYASMKFAGDAAMAAANNTTMTQGATATSTTSVQQEQQQQQSSDNGWVEKLRDAEWAQDYSDAQVFTLEGQSEQTMEEHAKNSEFYQFMDKIRSKELLIDEETGQLVQGPGPDPDAPEDAEYLKEWAAAEGLNMPPGFFEHMMQRPQGNNEQAEGRLFDGSNDALMDDGALDNAADVEEWAREYAEAQEQLQRVQNETNYPFEPNNPYMYHDKPMEEGIAMLQLANMAEAALAFEAVCQKEPENVEAWRRLGTTQAENEKDCLAIIALNHARMLDPKDIAVHAALAVSHTNEHNVGAALQSLRSWLLSQPQYEHLGLVDLQEVAADEGLDEVPEENYFFAAPSEYRDCCTLLYAAVEMNPNDPQLHASLGVLHNLSHRFDEAAKNFRRAVELRPDDAHTWNKLGATLANGNRPQEALEAYNRALDINPGYVRVMYNMAVSYSNMAQYPLAAKHITRAIALQAGGTNPQGEGSRIATRGLWDLLRMTLNLMDRSDLVEASWQQDLTPFLKEFGLEDMAV
notes: Pex5, Trypanosoma cruzi, full length, residues 1-666, GenBank PBJ69826.1; Contains three Wxxx(F/Y) motifs; source: E. coli BL21 (DE3), purified (Ni-NTA, SEC)
Kd [6]: 88 nM | stoichiometry N [7]: 1 Pex5 per MDH tetramer and 2 Pex5 per MDH tetramer
